The record followed here is PMC2734569, “Functional mapping of the fission yeast DNA polymerase δ B-subunit Cdc1 by site-directed and random pentapeptide insertion mutagenesis” (BMC Molecular Biology, 2009).

For assay [1], the target named is Cdc1-J17 (Schizosaccharomyces pombe) (UniProt P87324). Briefly: two-hybrid; LexA-Cdc1 bait (pBTM116 or pBTM116BN) with Gal4-Pol3 prey and co-expressed c-myc-tagged Cdc27 (pAA-Cdc27) in S. cerevisiae CTY10-5d; ONPG liquid culture beta-galactosidase assay, mean of triplicates, as percent of wild-type Cdc1.
Assay [2] concerns the target T1, Cdc1 (fission yeast DNA polymerase delta B-subunit), wild type (Schizosaccharomyces pombe, UniProt P87324 1-462).
T1 construct: DNA polymerase delta B-subunit Cdc1, S. pombe; cdc1+ cDNA on a 1.5 kb BamHI fragment from pBTM116-Cdc1, ORF 1386 bp; also called WT; LexA-Cdc1; source: yeast two-hybrid fusion, in S. cerevisiae CTY10-5d
T1 sequence (looked up): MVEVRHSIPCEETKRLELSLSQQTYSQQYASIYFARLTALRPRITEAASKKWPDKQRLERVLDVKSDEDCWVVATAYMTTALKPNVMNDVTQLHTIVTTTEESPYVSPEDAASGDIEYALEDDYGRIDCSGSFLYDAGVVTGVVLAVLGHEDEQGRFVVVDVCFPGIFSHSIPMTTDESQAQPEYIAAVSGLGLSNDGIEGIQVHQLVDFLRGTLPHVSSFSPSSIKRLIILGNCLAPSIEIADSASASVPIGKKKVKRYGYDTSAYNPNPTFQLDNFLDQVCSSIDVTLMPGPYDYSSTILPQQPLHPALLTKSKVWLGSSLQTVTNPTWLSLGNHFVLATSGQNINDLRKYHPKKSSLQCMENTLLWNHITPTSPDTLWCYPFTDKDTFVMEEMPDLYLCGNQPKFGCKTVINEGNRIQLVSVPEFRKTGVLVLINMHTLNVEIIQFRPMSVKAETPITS
Briefly: two-hybrid; LexA-Cdc1 bait (pBTM116 or pBTM116BN) with Gal4 activation domain-Cdc27 prey (pGAD2F-Cdc27) in S. cerevisiae CTY10-5d; ONPG liquid culture beta-galactosidase assay, mean of triplicates, as percent of wild-type Cdc1. The settings on record: partners not purified.

The next assay addresses T2, Cdc1-A4 (Schizosaccharomyces pombe, UniProt P87324 1-462, Pro303Ala).
T2 construct: Cdc1, S. pombe, point mutant; source: yeast two-hybrid fusion, in S. cerevisiae CTY10-5d
T2 sequence (looked up): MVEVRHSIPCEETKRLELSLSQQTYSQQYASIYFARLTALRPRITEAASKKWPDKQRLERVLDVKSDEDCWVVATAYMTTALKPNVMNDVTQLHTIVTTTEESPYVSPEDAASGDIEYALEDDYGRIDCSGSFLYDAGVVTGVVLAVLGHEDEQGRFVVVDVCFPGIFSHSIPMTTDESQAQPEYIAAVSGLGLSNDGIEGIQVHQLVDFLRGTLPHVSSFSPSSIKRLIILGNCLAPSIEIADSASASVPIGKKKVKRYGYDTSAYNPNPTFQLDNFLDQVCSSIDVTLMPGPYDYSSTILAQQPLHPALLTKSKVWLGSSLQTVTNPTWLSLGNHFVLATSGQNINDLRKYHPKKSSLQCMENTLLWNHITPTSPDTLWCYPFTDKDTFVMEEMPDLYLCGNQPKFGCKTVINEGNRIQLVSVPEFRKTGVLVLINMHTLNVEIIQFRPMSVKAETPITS
The assay is described as above. The settings on record: partners not purified.

The next assay has as its target T3, Cdc1-J3 (Schizosaccharomyces pombe, UniProt P87324 1-462, Leu-GlyValProLeuLeu-Asp).
T3 construct: Cdc1, S. pombe, with a pentapeptide inserted after residue 62; also called E3; E8; source: yeast two-hybrid fusion, in S. cerevisiae CTY10-5d
T3 sequence (looked up): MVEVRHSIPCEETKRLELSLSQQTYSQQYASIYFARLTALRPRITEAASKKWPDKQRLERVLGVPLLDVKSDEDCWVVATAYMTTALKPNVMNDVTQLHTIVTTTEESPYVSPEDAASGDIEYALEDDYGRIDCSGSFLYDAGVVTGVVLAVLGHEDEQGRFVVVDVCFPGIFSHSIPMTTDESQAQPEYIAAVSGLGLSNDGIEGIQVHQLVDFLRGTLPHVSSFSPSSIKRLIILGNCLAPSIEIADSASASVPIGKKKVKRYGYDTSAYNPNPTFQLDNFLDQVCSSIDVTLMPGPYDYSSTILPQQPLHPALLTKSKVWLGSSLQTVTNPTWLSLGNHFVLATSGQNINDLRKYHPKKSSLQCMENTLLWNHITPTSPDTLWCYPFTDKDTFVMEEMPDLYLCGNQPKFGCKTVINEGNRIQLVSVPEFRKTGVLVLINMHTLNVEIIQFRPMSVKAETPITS
Described as above. The note with it: partners not purified.

B1: Pol3 (fission yeast DNA polymerase delta catalytic subunit) (natural protein, Schizosaccharomyces pombe, UniProt P30316 1-1086, looked up)
chain: MTDRSSNEGVVLNKENYPFPRRNGSIHGEITDVKRRRLSERNGYGDKKGSSSKEKTSSFEDELAEYASQLDQDEIKSSKDQQWQRPALPAINPEKDDIYFQQIDSEEFTEGSVPSIRLFGVTDNGNSILVHVVGFLPYFYVKAPVGFRPEMLERFTQDLDATCNGGVIDHCIIEMKENLYGFQGNEKSPFIKIFTTNPRILSRARNVFERGEFNFEELFPVGVGVTTFESNTQYLLRFMIDCDVVGMNWIHLPASKYQFRYQNRVSNCQIEAWINYKDLISLPAEGQWSKMAPLRIMSFDIECAGRKGVFPDPSIDPVIQIASIVTQYGDSTPFVRNVFCVDTCSQIVGTQVYEFQNQAEMLSSWSKFVRDVDPDVLIGYNICNFDIPYLLDRAKSLRIHNFPLLGRIHNFFSVAKETTFSSKAYGTRESKTTSIPGRLQLDMLQVMQRDFKLRSYSLNAVCSQFLGEQKEDVHYSIITDLQNGTADSRRRLAIYCLKDAYLPQRLMDKLMCFVNYTEMARVTGVPFNFLLARGQQIKVISQLFRKALQHDLVVPNIRVNGTDEQYEGATVIEPIKGYYDTPIATLDFSSLYPSIMQAHNLCYTTLLDSNTAELLKLKQDVDYSVTPNGDYFVKPHVRKGLLPIILADLLNARKKAKADLKKETDPFKKAVLDGRQLALKVSANSVYGFTGATNGRLPCLAISSSVTSYGRQMIEKTKDVVEKRYRIENGYSHDAVVIYGDTDSVMVKFGVKTLPEAMKLGEEAANYVSDQFPNPIKLEFEKVYFPYLLISKKRYAGLFWTRTDTYDKMDSKGIETVRRDNCPLVSYVIDTALRKMLIDQDVEGAQLFTKKVISDLLQNKIDMSQLVITKALSKTDYAAKMAHVELAERMRKRDAGSAPAIGDRVAYVIIKGAQGDQFYMRSEDPIYVLENNIPIDAKYYLENQLSKPLLRIFEPILGEKASSLLHGDHTRTISMAAPSVGGIMKFAVKVETCLGCKAPIKKGKTALCENCLNRSAELYQRQVAQVNDLEVRFARLWTQCQRCQGSMHQDVICTSRDCPIFYMRIAEHKKLQQSVDLLKRFDEMSW
notes: DNA polymerase delta catalytic subunit Pol3, S. pombe; prey plasmid named pACT-Pol3 in the results and pGAD2F-Pol3 in the methods; also called Gal4-Pol3; pACT-Pol3; source: yeast two-hybrid fusion, in S. cerevisiae CTY10-5d
Molecule B1 showed a two-hybrid beta-galactosidase activity, % of wild-type Cdc1 in assay [1] of 2%.

B2: Cdc27 (fission yeast DNA polymerase delta C-subunit) (natural protein, Schizosaccharomyces pombe, UniProt P30261 1-372, looked up)
chain: MEEWRNFLDIKVINESSLVTVDNLSLQLDISSEKAQEYLNMFYQGNDFLYPIYLIHGQPIDDEINLEIDEESQPISNFPVLQYILCDKSSLQEKQSRLKSGYKTVIFALSSAPLSDFDELLPAVYEIREKDVLYKKEDADKYGFIFNENSVPRVLKKAPSTHSPQLSVPSKTSTIDKTDTRSTEKTKGKDIFSNARNQKGNSSRKNKKAPLENHKEKEPLLPKEEKLSEQAKRERDDLKNIMQLEDESVSTTSVHDSEDDNLDSNNFQLEIGTEAKSAAPDEPQEIIKSVSGGKRRGKRKVKKYATTKDEEGFLVTKEEEVWESFSEDENISTGTSNVVRNKPTTVNIATKKKNTAQSKPQQKSIMSFFGKK
notes: DNA polymerase delta C-subunit Cdc27, S. pombe; prey plasmid pGAD2F-Cdc27; also called pGAD2F-Cdc27; source: yeast two-hybrid fusion, in S. cerevisiae CTY10-5d
In the case of B2, the “two-hybrid beta-galactosidase activity, % of wild-type Cdc1” value is 100% in assay [2], 31% in the assay with Cdc1-A4 and less than 1% with Cdc1-J3.
